Data from PMC11098746 (2024).

T1: ADP150
T1 chain: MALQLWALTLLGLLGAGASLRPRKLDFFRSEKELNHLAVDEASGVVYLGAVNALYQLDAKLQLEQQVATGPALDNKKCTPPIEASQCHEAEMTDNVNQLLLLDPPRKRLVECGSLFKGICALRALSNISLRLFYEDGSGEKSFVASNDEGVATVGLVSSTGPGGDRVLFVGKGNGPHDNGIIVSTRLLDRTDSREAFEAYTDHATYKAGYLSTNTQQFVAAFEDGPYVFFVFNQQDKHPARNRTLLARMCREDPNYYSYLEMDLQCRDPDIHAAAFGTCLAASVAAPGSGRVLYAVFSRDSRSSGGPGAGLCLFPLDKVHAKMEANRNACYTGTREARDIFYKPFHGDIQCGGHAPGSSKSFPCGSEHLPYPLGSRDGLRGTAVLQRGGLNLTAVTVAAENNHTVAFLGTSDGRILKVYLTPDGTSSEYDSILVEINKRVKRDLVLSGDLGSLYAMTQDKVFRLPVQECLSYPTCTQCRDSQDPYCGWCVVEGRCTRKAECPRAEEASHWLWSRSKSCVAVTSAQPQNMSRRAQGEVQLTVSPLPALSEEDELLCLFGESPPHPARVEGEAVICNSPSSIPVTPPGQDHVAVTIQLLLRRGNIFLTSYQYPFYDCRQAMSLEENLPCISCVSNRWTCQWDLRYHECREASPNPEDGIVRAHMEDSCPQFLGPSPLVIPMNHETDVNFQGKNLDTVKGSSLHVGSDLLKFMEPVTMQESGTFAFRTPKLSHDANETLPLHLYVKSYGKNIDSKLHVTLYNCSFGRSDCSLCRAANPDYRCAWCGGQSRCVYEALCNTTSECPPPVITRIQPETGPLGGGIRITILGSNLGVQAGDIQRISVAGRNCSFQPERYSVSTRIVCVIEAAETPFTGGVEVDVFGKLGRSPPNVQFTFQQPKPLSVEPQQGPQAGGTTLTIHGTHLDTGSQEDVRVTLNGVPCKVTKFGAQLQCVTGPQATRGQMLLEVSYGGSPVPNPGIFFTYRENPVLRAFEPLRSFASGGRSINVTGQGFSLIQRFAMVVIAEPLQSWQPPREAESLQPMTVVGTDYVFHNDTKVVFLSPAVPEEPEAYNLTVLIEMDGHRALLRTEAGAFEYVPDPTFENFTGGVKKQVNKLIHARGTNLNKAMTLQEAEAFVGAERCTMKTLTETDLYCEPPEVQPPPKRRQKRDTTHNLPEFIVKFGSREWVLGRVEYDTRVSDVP

T2: ADP372
T2 chain: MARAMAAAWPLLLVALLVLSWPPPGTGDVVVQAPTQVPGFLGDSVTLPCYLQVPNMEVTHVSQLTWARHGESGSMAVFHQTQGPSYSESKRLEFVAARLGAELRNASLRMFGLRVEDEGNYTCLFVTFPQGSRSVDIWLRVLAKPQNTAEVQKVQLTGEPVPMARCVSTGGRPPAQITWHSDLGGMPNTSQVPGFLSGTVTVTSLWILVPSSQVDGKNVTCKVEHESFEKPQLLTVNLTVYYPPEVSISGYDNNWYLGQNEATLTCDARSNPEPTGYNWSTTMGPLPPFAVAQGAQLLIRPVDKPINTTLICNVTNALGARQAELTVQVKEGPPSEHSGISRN

T3: ADP103
T3 chain: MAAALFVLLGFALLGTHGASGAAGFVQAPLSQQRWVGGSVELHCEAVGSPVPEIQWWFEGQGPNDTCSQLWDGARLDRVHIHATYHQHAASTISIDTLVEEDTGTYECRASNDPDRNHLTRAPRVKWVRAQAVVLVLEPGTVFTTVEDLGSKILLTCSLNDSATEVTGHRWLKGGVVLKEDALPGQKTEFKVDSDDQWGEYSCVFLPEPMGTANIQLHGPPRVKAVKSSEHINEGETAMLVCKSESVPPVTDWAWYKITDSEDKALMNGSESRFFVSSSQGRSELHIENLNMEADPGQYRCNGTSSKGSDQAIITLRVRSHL

T4: ADP315
T4 chain: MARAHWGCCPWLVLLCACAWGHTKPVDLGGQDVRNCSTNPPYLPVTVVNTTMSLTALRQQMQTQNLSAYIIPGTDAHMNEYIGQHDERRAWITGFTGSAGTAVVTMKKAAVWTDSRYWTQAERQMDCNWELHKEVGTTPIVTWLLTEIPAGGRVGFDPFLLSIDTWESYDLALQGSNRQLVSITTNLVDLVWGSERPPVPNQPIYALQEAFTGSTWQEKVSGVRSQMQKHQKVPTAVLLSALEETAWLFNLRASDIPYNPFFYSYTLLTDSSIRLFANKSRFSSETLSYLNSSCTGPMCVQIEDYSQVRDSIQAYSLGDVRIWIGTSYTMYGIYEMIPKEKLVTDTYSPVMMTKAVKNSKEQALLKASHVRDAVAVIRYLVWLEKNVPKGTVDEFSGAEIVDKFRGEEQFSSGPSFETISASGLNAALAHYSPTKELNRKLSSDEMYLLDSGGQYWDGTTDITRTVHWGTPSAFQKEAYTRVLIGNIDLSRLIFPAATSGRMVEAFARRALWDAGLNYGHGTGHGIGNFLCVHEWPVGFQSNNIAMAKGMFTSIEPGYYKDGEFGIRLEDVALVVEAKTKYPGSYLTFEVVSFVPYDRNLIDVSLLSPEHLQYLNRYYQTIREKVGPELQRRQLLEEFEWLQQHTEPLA

T5: ADP133
T5 chain: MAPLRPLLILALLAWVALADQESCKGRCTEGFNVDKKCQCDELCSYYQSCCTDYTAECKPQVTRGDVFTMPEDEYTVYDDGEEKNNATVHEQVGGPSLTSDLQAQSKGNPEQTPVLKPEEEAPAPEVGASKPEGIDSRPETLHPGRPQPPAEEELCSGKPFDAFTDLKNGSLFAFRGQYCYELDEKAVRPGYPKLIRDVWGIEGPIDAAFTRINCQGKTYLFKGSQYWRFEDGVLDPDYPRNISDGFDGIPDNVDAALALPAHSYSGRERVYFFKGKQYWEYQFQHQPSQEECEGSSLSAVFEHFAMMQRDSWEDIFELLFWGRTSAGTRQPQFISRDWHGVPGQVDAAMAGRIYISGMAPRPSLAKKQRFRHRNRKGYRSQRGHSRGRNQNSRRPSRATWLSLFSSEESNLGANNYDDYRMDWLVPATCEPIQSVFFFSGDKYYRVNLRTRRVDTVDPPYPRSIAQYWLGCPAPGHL


How the values were obtained:
Assay in all cases: AVEXIS screen signal:noise (double-corrected)
ADP112 = molecular target: ADP112
ADP110 = molecular target: ADP110
ADP150 = molecular target: T1, ADP150
ADP372 = molecular target: T2, ADP372
ADP103 = molecular target: T3, ADP103
ADP323 = molecular target: ADP323
ADP315 = molecular target: T4, ADP315
ADP133 = molecular target: T5, ADP133

Row | Binder | binding score (ADP112) | binding score (ADP110) | binding score (ADP150) | binding score (ADP372) | binding score (ADP103) | binding score (ADP323) | binding score (ADP315) | binding score (ADP133)
1 | ADP189 (protein, bait human Fc-tagged dimer; N-glycosylation sequons mutated in Plasmodium baits) NNIAHKEDDCGASELAIKKLQELKKFELDILKDFIKKDTDHTDMYKRYHCISSDFLKNTKQEDKKEDNYAKKEDKKDIENSANYIINNKNEKISFINKIISFVGMWNYNKYGNNIQESKNKINIYNNNNNKAENELLYNKEDYTNHIPTNENPNSYMQLSAFNLAKKSMFLGGKDNAAQNFEVGNYGSFYMIFGARNTDYPWACSCDTLQLEEYKEKKRSYVLCSNQLDMSIQNSDLFCNPKN | 7.26 | 34.1 | – | – | – | – | – | –
2 | ADP178 (protein, bait human Fc-tagged dimer; N-glycosylation sequons mutated in Plasmodium baits) SDTFRVFEDFDVRRKNKIWCCNLNHEKSYFHNKAINTAYKNRVLKESILLNLDLDMKKYKDNIITRKKTPENIYKEIYENNYEMKYDEDIPNNMAEEKRDEKEVIEHLEIDEKNGKQYKSDINKPVSLSHLKQYKNIYVNNNNKINKKKSIDKHLPSYNLERKNNKYLNFLLVDNRNEAYTFMVPMKFYINHEMYNIADEEYNKLMEDNSVDVYLNNILVEYKYENFEIKEGEVDGEVEGEGEVEGEVEGEVKGKVVEGIENNMNEEEKYNKDNKDKENQINSNGQDENTEFQENDNNDAVIMKYT | – | – | 8.31 | 5.47 | 10.2 | – | – | –
3 | ADP173 (protein, bait human Fc-tagged dimer; N-glycosylation sequons mutated in Plasmodium baits) EVESSDSTSFLNLISGQSSSNSDDTVSSSDSRGVVASVSGTVDSDVSRTDSTGNVNSKNSELSETRQNSVEQNNNANSADNSIKIKSAFLKENVGVKITGPCDEGFGLVMVPHIIINVDTRNTDIQLGKKSSEINYGIKLRKKGKDEYEEKVGIDLLKNVCETGKNFKFVAYIKGDELIIKWKVIEEGNIPIDIKKFKIKRMSPPITSIQVFSSMSDEKSFVLENKNYVVTNNMPEKCEALATNCFLSGNIDIEKCYQCSLLVENDAKSDVCYNFISRENKEKLNEERFKVKGSTEYEESVESELKGAIDLLISSFYKSDGENGENVLISFEDLNSALEDDIINFCSLLKLVDLSGTFMNHQIGTTADAFNNIVKLLKEHKEEDEFVLRTKLRNPALCMKNVDDWVKSRCGLLTSDDSYVVIKKNSDTNGKNENNEANDEEYDGVIDLSTNENGNVKSIQFNDDIYCNDDYCNRWKNENNCISKIGVEDQGNCASSWAFASKLHFETLRCMKGYDHLGISALYLTNCAKGKISKRCTEGGNPAEFLEIVSNSGFLPTEFDYPYFYALVENSCPSGLNKWINLWEDVKLFDYKYEPNSIGSKGYSVYKSEMFKDNMDEYVKMIKSEIKNKGSVIAYINAQSVLTYDFNGKNILNMCGSKTTDHSINVIGYGHYKNKEGEEKSYWLVRNSWGYYWGDEGNFKVDMYGPSNCNYHFINTVLVFNIDIPMMNNNENNKKGLYNYFPKYTHEFYHNFYDQNFGSDNKISLINSNGANKNDVNNAYTVHGQSGETEVQPSQLRSTANQDSNRGAVTSDPLRTQPETTSTSVKKMDVFQVLKHVKNSKIKVGLIKYDNDDEIGAHHSCTRAYSFDPEKYDECVEFCRKNWEQCKDKPSPGFCLTKLDESKGCFFCYV | – | – | – | – | 7.09 | 7.35 | 5.31 | 6.59
